This is an account of results in US20220064329A1 (Novo Nordisk, published 2022).

Changes are numbered by the printed parent chain. Names and notes keep the numbering of the source.

Broadly, the Kd is a measure of binding affinity in units of concentration.

Sequences and labels used below:
B1: VH SEQ ID NO 538 / VL SEQ ID NO 462 (antibody, IgG4, V domains shown)
VH: QVQLQESGPGLVEPSQTLSLTCTVSGYSITSDSAWSWIRQPPGKKLEWIGYIQYSGSTNYNPSLKSRVTISRDTSKNQFSLKLSSVTAADTAVYYCARSVNYYGNSFAVGYWGQGTLVTVSS
VL: EIVLTQSPATLSLSPGERATLSCRASQGVSDYLHWYQQKPGQAPRLLIKYASQPATGIPARFSGSGSGTDFTLTISSLEPEDFAVYYCQNGHSFPLTFGAGTKLEIK
notes: humanized 11F2; IgG4 S228P/kappa
B2: VH SEQ ID NO 546 / VL SEQ ID NO 350 (antibody, IgG4, V domains shown)
VH: B1 VH with L117S
VL: B1 VL with V29I, A51T, I106L
notes: as for B1
B3: VH SEQ ID NO 546 / VL SEQ ID NO 334 (antibody, IgG4, V domains shown)
VH: B1 VH with L117S
VL: B1 VL with V29I, A100Q
notes: as for B1
B4: VH SEQ ID NO 554 / VL SEQ ID NO 478 (antibody, IgG4, V domains shown)
VH: B1 VH with E13K, Q16D, T23A, T30S, P41F, K45G, I70M, R72V, A89L, Y111P
VL: B1 VL with N90Q, A100Q
notes: as for B1
B5: VH SEQ ID NO 546 / VL SEQ ID NO 310 (antibody, IgG4, V domains shown)
VH: B1 VH with L117S
VL: B1 VL with V29I, H34A, A100Q
notes: as for B1
B6: VH SEQ ID NO 538 / VL SEQ ID NO 502 (antibody, IgG4, V domains shown)
VH: B1 VH
VL: B1 VL with A51T, A100Q
notes: as for B1
B7: VH SEQ ID NO 546 / VL SEQ ID NO 390 (antibody, IgG4, V domains shown)
VH: B1 VH with L117S
VL: B1 VL with H34A, Q42E, A100Q
notes: as for B1
B8: VH SEQ ID NO 538 / VL SEQ ID NO 494 (antibody, IgG4, V domains shown)
VH: B1 VH
VL: B1 VL with F83V, A100Q
notes: as for B1
B9: VH SEQ ID NO 546 / VL SEQ ID NO 414 (antibody, IgG4, V domains shown)
VH: B1 VH with L117S
VL: B1 VL with H34A, A100Q
notes: as for B1
B10: VH SEQ ID NO 546 / VL SEQ ID NO 454 (antibody, IgG4, V domains shown)
VH: B1 VH with L117S
VL: B1 VL with Q42E, A100Q
notes: as for B1
B11: VH SEQ ID NO 554 / VL SEQ ID NO 382 (antibody, IgG4, V domains shown)
VH: B1 VH with E13K, Q16D, T23A, T30S, P41F, K45G, I70M, R72V, A89L, Y111P
VL: B1 VL with V29L, Q42E, A100Q
notes: as for B1
B12: VH SEQ ID NO 546 / VL SEQ ID NO 462 (antibody, IgG4, V domains shown)
VH: B1 VH with L117S
VL: B1 VL
notes: as for B1
B13: VH SEQ ID NO 546 / VL SEQ ID NO 446 (antibody, IgG4, V domains shown)
VH: B1 VH with L117S
VL: B1 VL with H34A, A51T, A100Q
notes: as for B1
B14: VH SEQ ID NO 554 / VL SEQ ID NO 326 (antibody, IgG4, V domains shown)
VH: B1 VH with E13K, Q16D, T23A, T30S, P41F, K45G, I70M, R72V, A89L, Y111P
VL: B1 VL with V29I, Q42E, A51T, A84G, I106L
notes: as for B1
B15: VH SEQ ID NO 546 / VL SEQ ID NO 430 (antibody, IgG4, V domains shown)
VH: B1 VH with L117S
VL: B1 VL with H34A, A84G, A100Q
notes: as for B1
B16: VH SEQ ID NO 538 / VL SEQ ID NO 478 (antibody, IgG4, V domains shown)
VH: B1 VH
VL: B1 VL with N90Q, A100Q
notes: as for B1
B17: VH SEQ ID NO 546 / VL SEQ ID NO 422 (antibody, IgG4, V domains shown)
VH: B1 VH with L117S
VL: B1 VL with H34A, N90Q, A100Q
notes: as for B1
B18: VH SEQ ID NO 538 / VL SEQ ID NO 486 (antibody, IgG4, V domains shown)
VH: B1 VH
VL: B1 VL with A84G, A100Q
notes: as for B1
B19: VH SEQ ID NO 546 / VL SEQ ID NO 478 (antibody, IgG4, V domains shown)
VH: B1 VH with L117S
VL: B1 VL with N90Q, A100Q
notes: as for B1
B20: VH SEQ ID NO 546 / VL SEQ ID NO 406 (antibody, IgG4, V domains shown)
VH: B1 VH with L117S
VL: B1 VL with H34A
notes: as for B1
B21: VH SEQ ID NO 546 / VL SEQ ID NO 358 (antibody, IgG4, V domains shown)
VH: B1 VH with L117S
VL: B1 VL with V29I, A51T, A100Q
notes: as for B1
B22: VH SEQ ID NO 554 / VL SEQ ID NO 358 (antibody, IgG4, V domains shown)
VH: B1 VH with E13K, Q16D, T23A, T30S, P41F, K45G, I70M, R72V, A89L, Y111P
VL: B1 VL with V29I, A51T, A100Q
notes: as for B1
B23: VH SEQ ID NO 554 / VL SEQ ID NO 470 (antibody, IgG4, V domains shown)
VH: B1 VH with E13K, Q16D, T23A, T30S, P41F, K45G, I70M, R72V, A89L, Y111P
VL: B1 VL with A100Q
notes: as for B1
B24: VH SEQ ID NO 554 / VL SEQ ID NO 350 (antibody, IgG4, V domains shown)
VH: B1 VH with E13K, Q16D, T23A, T30S, P41F, K45G, I70M, R72V, A89L, Y111P
VL: B1 VL with V29I, A51T, I106L
notes: as for B1
B25: VH SEQ ID NO 554 / VL SEQ ID NO 462 (antibody, IgG4, V domains shown)
VH: B1 VH with E13K, Q16D, T23A, T30S, P41F, K45G, I70M, R72V, A89L, Y111P
VL: B1 VL
notes: as for B1
B26: VH SEQ ID NO 546 / VL SEQ ID NO 486 (antibody, IgG4, V domains shown)
VH: B1 VH with L117S
VL: B1 VL with A84G, A100Q
notes: as for B1
B27: VH SEQ ID NO 554 / VL SEQ ID NO 318 (antibody, IgG4, V domains shown)
VH: B1 VH with E13K, Q16D, T23A, T30S, P41F, K45G, I70M, R72V, A89L, Y111P
VL: B1 VL with V29I, Q42E, A51T, A100Q
notes: as for B1
B28: VH SEQ ID NO 546 / VL SEQ ID NO 342 (antibody, IgG4, V domains shown)
VH: B1 VH with L117S
VL: B1 VL with V29I, A51T, T69R, I106L
notes: as for B1
B29: VH SEQ ID NO 554 / VL SEQ ID NO 454 (antibody, IgG4, V domains shown)
VH: B1 VH with E13K, Q16D, T23A, T30S, P41F, K45G, I70M, R72V, A89L, Y111P
VL: B1 VL with Q42E, A100Q
notes: as for B1
B30: VH SEQ ID NO 546 / VL SEQ ID NO 438 (antibody, IgG4, V domains shown)
VH: B1 VH with L117S
VL: B1 VL with H34A, F83V, A100Q
notes: as for B1
B31: VH SEQ ID NO 546 / VL SEQ ID NO 326 (antibody, IgG4, V domains shown)
VH: B1 VH with L117S
VL: B1 VL with V29I, Q42E, A51T, A84G, I106L
notes: as for B1
B32: VH SEQ ID NO 554 / VL SEQ ID NO 342 (antibody, IgG4, V domains shown)
VH: B1 VH with E13K, Q16D, T23A, T30S, P41F, K45G, I70M, R72V, A89L, Y111P
VL: B1 VL with V29I, A51T, T69R, I106L
notes: as for B1
B33: VH SEQ ID NO 538 / VL SEQ ID NO 470 (antibody, IgG4, V domains shown)
VH: B1 VH
VL: B1 VL with A100Q
notes: as for B1
B34: VH SEQ ID NO 546 / VL SEQ ID NO 374 (antibody, IgG4, V domains shown)
VH: B1 VH with L117S
VL: B1 VL with V29L, H34A, A51T, A100Q
notes: as for B1
B35: VH SEQ ID NO 546 / VL SEQ ID NO 382 (antibody, IgG4, V domains shown)
VH: B1 VH with L117S
VL: B1 VL with V29L, Q42E, A100Q
notes: as for B1
B36: VH SEQ ID NO 546 / VL SEQ ID NO 502 (antibody, IgG4, V domains shown)
VH: B1 VH with L117S
VL: B1 VL with A51T, A100Q
notes: as for B1
B37: VH SEQ ID NO 546 / VL SEQ ID NO 494 (antibody, IgG4, V domains shown)
VH: B1 VH with L117S
VL: B1 VL with F83V, A100Q
notes: as for B1
B38: VH SEQ ID NO 554 / VL SEQ ID NO 334 (antibody, IgG4, V domains shown)
VH: B1 VH with E13K, Q16D, T23A, T30S, P41F, K45G, I70M, R72V, A89L, Y111P
VL: B1 VL with V29I, A100Q
notes: as for B1
B39: VH SEQ ID NO 546 / VL SEQ ID NO 318 (antibody, IgG4, V domains shown)
VH: B1 VH with L117S
VL: B1 VL with V29I, Q42E, A51T, A100Q
notes: as for B1
B40: VH SEQ ID NO 546 / VL SEQ ID NO 366 (antibody, IgG4, V domains shown)
VH: B1 VH with L117S
VL: B1 VL with V29L, H34A, Q42E, A100Q
notes: as for B1
B41: VH SEQ ID NO 546 / VL SEQ ID NO 470 (antibody, IgG4, V domains shown)
VH: B1 VH with L117S
VL: B1 VL with A100Q
notes: as for B1
B42: VH SEQ ID NO 546 / VL SEQ ID NO 398 (antibody, IgG4, V domains shown)
VH: B1 VH with L117S
VL: B1 VL with H34A, Q42E, A51T, A100Q
notes: as for B1

This assay addresses T1, recombinant human activated Factor VII (FVIIa) (human, UniProt P08709 61-212; P08709 213-466, ten glutamate residues of the Gla domain may be gamma-carboxylated).
T1 construct: chains tethered by a disulfide bond; also called Factor VIIa; rFVIIa
T1 sequence 1: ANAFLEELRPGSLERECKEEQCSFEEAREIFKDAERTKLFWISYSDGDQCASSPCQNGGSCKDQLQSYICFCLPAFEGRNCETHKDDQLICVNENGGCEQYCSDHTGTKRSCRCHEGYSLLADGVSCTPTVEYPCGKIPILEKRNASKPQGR
T1 sequence 2: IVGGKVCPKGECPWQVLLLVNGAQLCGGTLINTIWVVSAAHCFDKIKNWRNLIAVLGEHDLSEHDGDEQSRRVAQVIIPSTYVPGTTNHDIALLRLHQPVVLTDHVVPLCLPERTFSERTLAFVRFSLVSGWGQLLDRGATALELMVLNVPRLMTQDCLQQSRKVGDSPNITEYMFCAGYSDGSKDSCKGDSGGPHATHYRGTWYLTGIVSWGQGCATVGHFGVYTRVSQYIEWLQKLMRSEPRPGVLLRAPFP
In words: BLI (Fortebio). (In BLI a coated tip is dipped into the sample, and binding shifts an interference pattern.)
Take B1: the Kd was 1.3 nM.

With B2, the Kd was determined as 0.96 nM. The value for B3 was 1.1 nM. Next, B4: 21 nM; B5: 3.2 nM; B6: 0.88 nM. The value for B7 was 7 nM. B8: the Kd came out at 1.1 nM. Turning to B9, the Kd is 7.1 nM.

As for B10, the Kd was determined as 1.1 nM. The value for B11 was 21 nM; that for B12 was 1.1 nM. Next, B13: 10 nM; B14: 14 nM; B15: 8.1 nM. B16: the dissociation constant (Kd) came out at 1.8 nM. In the case of B17, the dissociation constant (Kd) worked out at 24 nM. For the molecule B18, the dissociation constant Kd worked out at 1 nM. Next, B19: 2 nM; B20: 6.7 nM; B21: 0.99 nM. With B22, the Kd worked out at 16 nM.

With B23, the equilibrium dissociation constant (Kd) turned out to be 19 nM. The value for B24 was 19 nM; that for B25 was 20 nM. Next, B26: 1.1 nM.

As for B27, the Kd was 15 nM. For B28, the Kd was determined as 1.2 nM. The value for B29 was 19 nM.

With B30, the dissociation constant Kd worked out at 8 nM. Next, B31: 0.81 nM; B32: 23 nM. The value for B33 was 1 nM; that for B34 was 6.8 nM; that for B35 was 1.3 nM.

On to B36, for which the Kd stood at 1.1 nM. Turning to B37, the equilibrium dissociation constant (Kd) is 1.2 nM. Next, B38: 18 nM; B39: 0.86 nM; B40: 5.7 nM. The value for B41 was 1.2 nM; that for B42 was 11 nM.
